Results as given in patent US20030044418A1 (TEXAS A AND M UNIVERSITY SYSTEM UNIVERSITY, published 2003).

Columns and labels:
[1] = biological target: T1, Aα chain of Fg (UniProt P02671 20-629); assay: Western ligand blot, biotin labeled rSdrG(50-597)
T1 construct: Chain of native Fg on a Western ligand blot
T1 sequence: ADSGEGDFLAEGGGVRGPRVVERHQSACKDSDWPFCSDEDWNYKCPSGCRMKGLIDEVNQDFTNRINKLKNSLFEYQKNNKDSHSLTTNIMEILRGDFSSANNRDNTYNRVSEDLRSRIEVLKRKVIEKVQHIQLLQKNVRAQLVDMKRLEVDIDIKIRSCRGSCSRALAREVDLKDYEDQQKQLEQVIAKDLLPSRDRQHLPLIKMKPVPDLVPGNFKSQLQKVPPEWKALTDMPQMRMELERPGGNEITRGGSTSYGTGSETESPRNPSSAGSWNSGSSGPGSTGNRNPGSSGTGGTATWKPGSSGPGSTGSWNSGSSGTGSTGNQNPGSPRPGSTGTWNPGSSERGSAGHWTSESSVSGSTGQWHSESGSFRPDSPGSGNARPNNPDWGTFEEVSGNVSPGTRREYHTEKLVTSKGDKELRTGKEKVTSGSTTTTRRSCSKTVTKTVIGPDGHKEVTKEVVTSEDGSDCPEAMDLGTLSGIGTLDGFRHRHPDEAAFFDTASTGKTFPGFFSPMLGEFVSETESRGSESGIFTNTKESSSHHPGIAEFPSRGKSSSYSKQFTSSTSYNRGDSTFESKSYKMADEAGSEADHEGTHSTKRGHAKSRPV

[2] = biological target: T2, thrombin digested Fg (human, UniProt P02671 36-629; P02675 45-491; P02679 27-437); assay: ELISA, Fg-coated wells pretreated with thrombin, biotin labeled rSdrG(50-597)
T2 construct: Fg coated on wells and treated with 1.0 NIH unit/ml thrombin for 30 min; also called thrombin-treated Fg; Fg treated with thrombin
T2 sequence 1: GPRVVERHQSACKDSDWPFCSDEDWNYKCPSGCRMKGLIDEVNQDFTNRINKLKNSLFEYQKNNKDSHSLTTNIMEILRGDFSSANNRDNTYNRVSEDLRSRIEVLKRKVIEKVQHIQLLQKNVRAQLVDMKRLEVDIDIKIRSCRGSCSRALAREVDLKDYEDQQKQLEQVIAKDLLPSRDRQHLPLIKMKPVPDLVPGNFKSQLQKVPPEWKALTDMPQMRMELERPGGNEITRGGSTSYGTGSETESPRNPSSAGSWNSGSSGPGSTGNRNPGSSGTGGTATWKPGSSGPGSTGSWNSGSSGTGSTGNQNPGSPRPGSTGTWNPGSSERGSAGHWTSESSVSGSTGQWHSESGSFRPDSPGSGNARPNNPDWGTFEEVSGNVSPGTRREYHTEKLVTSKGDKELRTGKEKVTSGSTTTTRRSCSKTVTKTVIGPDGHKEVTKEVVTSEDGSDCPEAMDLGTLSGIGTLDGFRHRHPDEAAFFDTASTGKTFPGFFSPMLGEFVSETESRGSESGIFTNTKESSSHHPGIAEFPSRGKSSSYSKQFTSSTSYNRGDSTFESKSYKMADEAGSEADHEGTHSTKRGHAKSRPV
T2 sequence 2: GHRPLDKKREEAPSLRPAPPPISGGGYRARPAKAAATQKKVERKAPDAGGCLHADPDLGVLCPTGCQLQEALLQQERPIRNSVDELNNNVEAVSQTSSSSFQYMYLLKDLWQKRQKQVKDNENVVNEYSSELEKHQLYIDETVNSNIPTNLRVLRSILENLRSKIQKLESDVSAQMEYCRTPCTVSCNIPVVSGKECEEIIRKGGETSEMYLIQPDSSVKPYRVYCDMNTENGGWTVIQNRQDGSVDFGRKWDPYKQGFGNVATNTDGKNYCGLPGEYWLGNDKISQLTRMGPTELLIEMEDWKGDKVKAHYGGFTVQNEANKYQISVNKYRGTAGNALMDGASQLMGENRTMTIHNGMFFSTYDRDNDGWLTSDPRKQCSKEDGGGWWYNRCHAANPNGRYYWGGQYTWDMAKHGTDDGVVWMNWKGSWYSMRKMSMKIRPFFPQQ
T2 sequence 3: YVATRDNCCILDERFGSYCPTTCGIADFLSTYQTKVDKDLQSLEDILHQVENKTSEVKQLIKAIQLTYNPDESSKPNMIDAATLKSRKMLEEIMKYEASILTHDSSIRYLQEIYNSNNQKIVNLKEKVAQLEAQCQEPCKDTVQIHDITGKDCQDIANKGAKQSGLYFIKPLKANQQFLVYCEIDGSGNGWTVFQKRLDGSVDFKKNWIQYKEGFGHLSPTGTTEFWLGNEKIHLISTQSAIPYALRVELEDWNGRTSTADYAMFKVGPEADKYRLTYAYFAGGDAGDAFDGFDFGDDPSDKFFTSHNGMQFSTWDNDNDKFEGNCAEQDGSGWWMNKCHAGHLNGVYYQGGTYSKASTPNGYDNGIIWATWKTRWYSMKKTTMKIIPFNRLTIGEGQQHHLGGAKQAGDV

[3] = biological target: T3, fibrinogen (Fg) (human, UniProt P02671 20-629; P02675 31-491; P02679 27-437); assay: ELISA, increasing rSdrG(50-597) on immobilized Fg, anti-His-tag detection; apparent KD
T3 construct: Purified native Fg bought from Enzyme Research Labs, coated on microtiter wells (1 µg); also called human Fg; immobilized Fg
T3 sequence 1: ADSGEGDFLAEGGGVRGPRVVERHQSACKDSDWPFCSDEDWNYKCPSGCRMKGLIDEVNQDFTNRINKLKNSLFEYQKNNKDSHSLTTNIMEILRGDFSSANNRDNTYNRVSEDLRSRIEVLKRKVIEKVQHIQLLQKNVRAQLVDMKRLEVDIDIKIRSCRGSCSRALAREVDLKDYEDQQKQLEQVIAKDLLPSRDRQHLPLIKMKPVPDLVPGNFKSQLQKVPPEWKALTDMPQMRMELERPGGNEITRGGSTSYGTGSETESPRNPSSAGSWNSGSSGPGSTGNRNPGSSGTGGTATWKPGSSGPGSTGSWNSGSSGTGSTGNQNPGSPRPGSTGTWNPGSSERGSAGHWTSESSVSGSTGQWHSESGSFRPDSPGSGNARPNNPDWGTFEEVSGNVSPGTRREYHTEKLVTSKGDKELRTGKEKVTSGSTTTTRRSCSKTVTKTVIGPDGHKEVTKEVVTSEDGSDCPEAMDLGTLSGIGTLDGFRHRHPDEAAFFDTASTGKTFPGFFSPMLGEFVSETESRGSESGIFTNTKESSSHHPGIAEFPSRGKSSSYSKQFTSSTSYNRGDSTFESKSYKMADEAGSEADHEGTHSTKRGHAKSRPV
T3 sequence 2: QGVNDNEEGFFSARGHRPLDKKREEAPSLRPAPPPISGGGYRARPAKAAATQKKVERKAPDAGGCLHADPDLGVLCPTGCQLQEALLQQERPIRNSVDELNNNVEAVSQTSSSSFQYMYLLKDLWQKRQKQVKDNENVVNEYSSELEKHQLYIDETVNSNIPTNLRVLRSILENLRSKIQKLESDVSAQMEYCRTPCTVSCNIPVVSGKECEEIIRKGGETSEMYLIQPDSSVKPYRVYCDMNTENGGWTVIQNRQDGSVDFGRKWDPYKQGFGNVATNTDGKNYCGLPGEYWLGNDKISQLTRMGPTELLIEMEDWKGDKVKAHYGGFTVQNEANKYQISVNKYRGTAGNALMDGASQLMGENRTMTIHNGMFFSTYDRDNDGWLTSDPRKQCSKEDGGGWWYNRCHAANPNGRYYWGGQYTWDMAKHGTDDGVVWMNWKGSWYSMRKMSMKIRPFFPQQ
T3 sequence 3: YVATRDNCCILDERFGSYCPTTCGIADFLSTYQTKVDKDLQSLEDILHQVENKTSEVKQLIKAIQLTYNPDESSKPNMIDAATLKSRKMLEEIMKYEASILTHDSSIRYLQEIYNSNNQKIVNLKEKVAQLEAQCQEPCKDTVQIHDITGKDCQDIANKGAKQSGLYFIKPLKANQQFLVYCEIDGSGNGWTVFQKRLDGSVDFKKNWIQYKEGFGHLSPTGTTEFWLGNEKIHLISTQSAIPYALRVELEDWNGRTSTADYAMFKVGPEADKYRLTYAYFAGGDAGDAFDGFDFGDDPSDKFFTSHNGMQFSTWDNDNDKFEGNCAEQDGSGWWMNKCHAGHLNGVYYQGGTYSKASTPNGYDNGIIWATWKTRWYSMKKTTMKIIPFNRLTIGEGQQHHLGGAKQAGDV

[4] = biological target: T4, Fg treated with contortrixobin (human, UniProt P02671 20-629; P02675 45-491; P02679 27-437); assay: ELISA of Example 2, Fg-coated wells pretreated with protease, biotin labeled rSdrG(50-597)
T4 construct: Fg coated on wells and treated for 30 min at room temperature with contortrixobin from Agkistrodon contortrix contortrix; also called contortrixobin-treated Fg
T4 sequence 1: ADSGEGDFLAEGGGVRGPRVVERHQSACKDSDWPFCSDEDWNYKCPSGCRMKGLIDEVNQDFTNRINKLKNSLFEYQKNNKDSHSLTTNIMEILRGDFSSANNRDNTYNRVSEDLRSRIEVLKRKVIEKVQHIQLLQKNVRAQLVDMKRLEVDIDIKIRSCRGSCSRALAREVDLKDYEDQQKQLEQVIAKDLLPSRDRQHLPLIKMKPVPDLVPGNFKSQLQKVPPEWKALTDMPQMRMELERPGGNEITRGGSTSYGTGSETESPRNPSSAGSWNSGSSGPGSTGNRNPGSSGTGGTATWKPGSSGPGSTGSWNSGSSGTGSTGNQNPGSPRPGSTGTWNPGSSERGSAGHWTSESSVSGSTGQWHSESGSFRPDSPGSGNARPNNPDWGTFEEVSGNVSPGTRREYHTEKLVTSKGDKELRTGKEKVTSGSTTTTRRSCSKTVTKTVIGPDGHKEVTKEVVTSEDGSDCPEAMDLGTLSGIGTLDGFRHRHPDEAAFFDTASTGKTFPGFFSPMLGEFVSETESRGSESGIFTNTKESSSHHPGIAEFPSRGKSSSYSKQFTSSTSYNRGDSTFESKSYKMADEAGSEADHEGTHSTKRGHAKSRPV
T4 sequence 2: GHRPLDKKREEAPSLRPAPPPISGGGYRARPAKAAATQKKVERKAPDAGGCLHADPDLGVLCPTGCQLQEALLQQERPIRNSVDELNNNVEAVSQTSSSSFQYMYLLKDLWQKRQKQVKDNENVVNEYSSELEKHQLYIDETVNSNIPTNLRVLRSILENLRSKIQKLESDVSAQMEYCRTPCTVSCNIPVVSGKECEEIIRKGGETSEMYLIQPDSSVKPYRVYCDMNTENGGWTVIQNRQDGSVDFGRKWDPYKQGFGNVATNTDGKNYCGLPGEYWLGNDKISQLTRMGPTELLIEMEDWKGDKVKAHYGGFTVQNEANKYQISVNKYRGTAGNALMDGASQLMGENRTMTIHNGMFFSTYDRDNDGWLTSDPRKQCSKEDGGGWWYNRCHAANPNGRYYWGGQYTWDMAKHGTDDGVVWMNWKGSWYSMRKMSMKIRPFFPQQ
T4 sequence 3: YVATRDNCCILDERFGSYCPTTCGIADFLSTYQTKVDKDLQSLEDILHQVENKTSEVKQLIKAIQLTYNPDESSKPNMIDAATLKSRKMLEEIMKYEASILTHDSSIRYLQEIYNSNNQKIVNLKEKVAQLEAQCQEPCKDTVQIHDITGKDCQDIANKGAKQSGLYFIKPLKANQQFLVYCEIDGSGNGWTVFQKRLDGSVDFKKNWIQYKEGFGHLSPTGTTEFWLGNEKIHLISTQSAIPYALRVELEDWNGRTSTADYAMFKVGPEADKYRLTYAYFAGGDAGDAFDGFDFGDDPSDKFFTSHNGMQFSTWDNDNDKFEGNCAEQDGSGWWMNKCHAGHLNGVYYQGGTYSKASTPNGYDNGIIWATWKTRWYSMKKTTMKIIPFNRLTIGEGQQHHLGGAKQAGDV

B1: rSdrG(50-597) (other)
chain: HHHHHHAEENTVQDVKDSNMDDELSDSNDQSSNEEKNDVINNSQSINTDDDNQIKKEETNSNDAIENRSKDITQSTTNVDENEATFLQKTPQDNTQLKEEVVKEPSSVESSNSSMDTAQQPSHTTINSEASIQTSDNEENSRVSDFANSKIIESNTESNKEENTIEQPNKVREDSITSQPSSYKNIDEKISNQDELLNLPINEYENKVRPLSTTSAQPSSKRVTVNQLAAEQGSNVNHLIKVTDQSITEGYDDSDGIIKAHDAENLIYDVTFEVDDKVKSGDTMTVNIDKNTVPSDLTDSFAIPKIKDNSGEIIATGTYDNTNKQITYTFTDYVDKYENIKAHLKLTSYIDKSKVPNNNTKLDVEYKTALSSVNKTITVEYQKPNENRTANLQSMFTNIDTKNHTVEQTIYINPLRYSAKETNVNISGNGDEGSTIIDDSTIIKVYKVGDNQNLPDSNRIYDYSEYEDVTNDDYAQLGNNNDVNINFGNIDSPYIIKVISKYDPNKDDYTTIQQTVTMQTTINEYTGEFRTASYDNTIAFSTSSGQGQGDLPPE
notes: Used biotin labeled in the Western ligand blots and in the ELISAs on protease-treated Fg; also called recombinant SdrG A-region; recombinant form of the N-terminal A-region of SdrG
Question: Does B1 bind [1]?
Answer: no binding

Question: Does B1 bind [2]?
Answer: no binding (tested: 25-1000 nM)

Question: And the Kd [3]?
Answer: 90 nM

Question: Does B1 bind [4]?
Answer: no binding (tested: 25-1000 nM)
